How the values were obtained:
OG488-TFPIα-BR [1] = biological target: OG488-TFPIα-BR
FV-BR fragment (human) = FV-BR fragment (human) (UniProt P12259)
OG488-TFPIα-BR [2] = assay: fluorescence polarisation; steady-state fluorescence anisotropy; FV species or APCi titrated (0–100 nM) into 25 nM OG488-TFPIα-BR and 50 μM PCPS vesicles in HBS/Ca2+/PEG, pH 7.4 (20 mM Hepes, 150 mM NaCl, 5 mM CaCl2, 0.1% PEG-8000), 25 °C; fit to a model for tight binding

FV-BR fragment (human), sequence (P12259 979-1036): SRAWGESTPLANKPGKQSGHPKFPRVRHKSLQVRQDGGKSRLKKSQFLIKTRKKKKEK
Human FVa, sequence (P12259 29-737): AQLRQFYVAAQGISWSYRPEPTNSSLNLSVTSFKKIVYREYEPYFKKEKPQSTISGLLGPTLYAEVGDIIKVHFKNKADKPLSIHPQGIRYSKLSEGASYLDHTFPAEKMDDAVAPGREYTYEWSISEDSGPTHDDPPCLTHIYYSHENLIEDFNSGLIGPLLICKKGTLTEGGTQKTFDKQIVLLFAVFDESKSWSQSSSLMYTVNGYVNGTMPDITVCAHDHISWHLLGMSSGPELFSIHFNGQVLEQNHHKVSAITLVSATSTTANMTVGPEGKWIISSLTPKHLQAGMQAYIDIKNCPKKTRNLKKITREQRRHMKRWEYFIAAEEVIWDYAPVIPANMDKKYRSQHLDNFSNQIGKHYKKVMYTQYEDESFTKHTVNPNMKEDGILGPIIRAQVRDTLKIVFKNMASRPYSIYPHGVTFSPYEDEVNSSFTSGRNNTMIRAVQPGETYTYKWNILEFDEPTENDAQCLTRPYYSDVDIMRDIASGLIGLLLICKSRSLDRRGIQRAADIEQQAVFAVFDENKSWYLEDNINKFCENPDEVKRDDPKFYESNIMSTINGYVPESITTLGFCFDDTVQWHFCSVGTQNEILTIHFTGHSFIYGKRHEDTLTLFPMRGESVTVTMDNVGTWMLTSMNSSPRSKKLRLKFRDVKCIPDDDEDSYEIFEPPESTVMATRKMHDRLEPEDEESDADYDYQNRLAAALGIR
Human FVa, sequence (P12259 1574-2224): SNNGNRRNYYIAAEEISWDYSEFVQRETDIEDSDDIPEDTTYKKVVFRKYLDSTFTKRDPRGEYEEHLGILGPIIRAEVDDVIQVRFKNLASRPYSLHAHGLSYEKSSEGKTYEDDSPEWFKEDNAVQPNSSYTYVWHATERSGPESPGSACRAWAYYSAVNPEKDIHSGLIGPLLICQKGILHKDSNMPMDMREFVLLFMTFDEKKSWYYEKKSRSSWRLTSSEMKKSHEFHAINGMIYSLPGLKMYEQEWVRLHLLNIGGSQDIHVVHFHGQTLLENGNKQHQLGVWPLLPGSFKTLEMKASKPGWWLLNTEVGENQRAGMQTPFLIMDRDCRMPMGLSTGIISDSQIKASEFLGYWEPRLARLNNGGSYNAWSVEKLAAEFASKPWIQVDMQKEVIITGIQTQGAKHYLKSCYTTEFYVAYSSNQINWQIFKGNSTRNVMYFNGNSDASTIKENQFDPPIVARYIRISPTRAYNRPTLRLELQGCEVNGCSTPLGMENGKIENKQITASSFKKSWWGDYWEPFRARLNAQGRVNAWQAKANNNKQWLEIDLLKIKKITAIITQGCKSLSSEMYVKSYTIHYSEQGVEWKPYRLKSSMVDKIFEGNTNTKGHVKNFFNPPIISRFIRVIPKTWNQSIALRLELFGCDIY

Row | Reduced fold change of inactivation by APC, +TFPIα-BR (kobs no BR divided by kobs +BR; % peak thrombin in TGA; 20 nM FV species, 250 nM BR fragment, 1 nM APC) (OG488-TFPIα-BR [1]) [fold] | Reduced fold change of inactivation by APC, +FV-BR (kobs no BR divided by kobs +BR; % peak thrombin in TGA; 20 nM FV species, 250 nM BR fragment, 1 nM APC) (FV-BR fragment (human)) [fold] | Kd (OG488-TFPIα-BR [2]) [nM] | stoichiometry N (OG488-TFPIα-BR [2]) [mol/mol] | Substance
1 | 17 | 17 | 1.78 | 1.29 | FV-810
2 |  |  | 2.15 | 1.44 | FV-810-R306Q
3 |  |  | 2.46 | 1.18 | FV-810-R306Q/R506Q
4 |  |  | 1.72 | 1.43 | FV-810-R506Q
5 |  |  | 2.17 | 1.78 | FV-s46 (from UniProt P12259 29-990; P12259 1037-2224)
6 |  | 15.7 |  |  | FV-short (natural protein)
7 |  | 0.9 |  |  | Human FVa (from UniProt P12259 29-737; P12259 1574-2224) (complex)

Reference: PMC9637641
